The values below come from publication PMC10692205, “Pyroptosis inhibiting nanobodies block Gasdermin D pore formation” (Nature Communications, 2023).

For assay [1], the target named is T1, human wild-type, full length Gasdermin D (GSDMD 1-484), chemically biotinylated (Homo sapiens (Human)., UniProt P57764, chemically biotinylated (ChromaLink Biotin), approximately 2 biotins per molecule).
T1 construct: human Gasdermin D (GSDMD), wild type, full length, residues 1-484; also called human GSDMD wt, f.l; hGSDMD; source: E. coli Rosetta (DE3), purified (Ni-NTA, SUMO cleavage by ULP1, second Ni-NTA, SEC S200); chemically biotinylated (ChromaLink Biotin Labeling kit); not shown: His6-SUMO, N-terminal, cleaved
Put plainly: SPR; Biacore 8K; chemically biotinylated full length GSDMD captured on Series S Sensor Chip CAP; nanobodies injected as analytes, multi-cycle kinetics (VHH-1, -2, -3, -5: 0.5-32 nM; VHH-4, -6: 64-4096 nM); 25 °C; 20 mM HEPES pH 8.0, 200 mM NaCl, 5 mM DTT, 0.05% Tween20; flow 30 µl/min; association 120 s, dissociation 300 s; 1:1 binding model. The settings on record: both partners purified. (In general: Surface plasmon resonance follows binding to a sensor surface in real time, without labels.)

Assay [2] has as its target T2, chemically biotinylated full length human Gasdermin D (GSDMD) (Homo sapiens (Human)., UniProt P57764, chemically biotinylated (ChromaLink Biotin), approximately 2 biotins per molecule; sites not stated).
T2 construct: human Gasdermin D, wild-type, full length, residues 1-484; also called chemically biotinylated GSDMD; not shown: His6, N-terminal, cleaved; SUMO, N-terminal, cleaved
Put plainly: SPR; chemically biotinylated GSDMD captured on a Series S Sensor Chip CAP (biotin capture kit); nanobodies injected as analytes, multi-cycle kinetics, 120 s association, 300 s dissociation, 1:1 binding model; 25 °C; 20 mM HEPES pH 8.0, 200 mM NaCl, 5 mM DTT, 0.05% Tween20. The settings on record: both partners purified.

Assay [3] addresses T3, human wild-type, full length Gasdermin D (GSDMD) 1-484 (Homo sapiens (Human)., UniProt P57764). Put plainly: cell-based or functional assay.
The target of assay [4] is human wild-type, full length Gasdermin D (GSDMD 1-484), chemically biotinylated (human) (UniProt P57764). Put plainly: SPR; Biacore 8K; chemically biotinylated full length GSDMD captured on Series S Sensor Chip CAP; nanobodies injected as analytes, multi-cycle kinetics (VHH-1, -2, -3, -5: 0.5-32 nM; VHH-4, -6: 64-4096 nM); 25 °C; 20 mM HEPES pH 8.0, 200 mM NaCl, 5 mM DTT, 0.05% Tween20; flow 30 µl/min; association 120 s, dissociation 300 s; 1:1 binding model.

For assay [5], the target named is T3, human wild-type, full length Gasdermin …. Put plainly: nanoDSF thermal shift; nanobodies titrated to GSDMD (5 µM) in increasing concentrations; heated 20 to 90 °C at 1.5 °C/min; fluorescence at 330 and 350 nm. The conditions noted are these: both partners purified. A general note: In DSF a fluorescence change marks the thermal transition of the protein.
Assay [6] has as its target T4, chemically biotinylated full length human Gasdermin D (GSDMD) (human, UniProt P57764 1-484, chemically biotinylated (ChromaLink Biotin), approximately 2 biotins per molecule; sites not stated).
T4 chain: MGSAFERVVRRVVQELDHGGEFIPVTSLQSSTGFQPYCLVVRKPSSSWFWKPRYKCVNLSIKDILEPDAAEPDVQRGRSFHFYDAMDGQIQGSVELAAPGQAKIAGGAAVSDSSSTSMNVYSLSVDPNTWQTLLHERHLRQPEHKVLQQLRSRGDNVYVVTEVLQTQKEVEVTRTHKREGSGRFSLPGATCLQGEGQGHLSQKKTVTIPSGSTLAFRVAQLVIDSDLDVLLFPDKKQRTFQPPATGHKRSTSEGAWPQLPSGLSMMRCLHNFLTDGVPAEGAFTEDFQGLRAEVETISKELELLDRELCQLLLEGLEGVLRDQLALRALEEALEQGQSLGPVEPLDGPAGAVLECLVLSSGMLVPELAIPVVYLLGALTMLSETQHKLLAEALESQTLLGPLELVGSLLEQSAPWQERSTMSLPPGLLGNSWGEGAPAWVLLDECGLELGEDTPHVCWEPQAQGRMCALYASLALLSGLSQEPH
Briefly: SPR.

Assay [7] addresses T5, GSDMD_(Δ184-194/Δ247-272) (human, UniProt P57764, Δ184-194 | Δ247-272).
T5 construct: human Gasdermin D 1-484 with residues 184-194 (in the NTD) and 247-272 (linker between the domains) deleted; also called GSDMD crystallization construct; source: E. coli Rosetta (DE3), purified (Ni-NTA, ULP1 cleavage, second Ni-NTA, SEC); not shown: His6, N-terminal, cleaved; SUMO, N-terminal, cleaved
Put plainly: SEC-MALS; GSDMD_(Δ184-194/Δ247-272) mixed with VHH GSDMD-2, VHH GSDMD-6 or both at equimolar concentrations (189 µM); Superose 6 10/300 GL in GSDMD-SEC buffer. The conditions noted are these: both partners purified. For orientation: Size exclusion chromatography separates by hydrodynamic size, large species first.

As usually defined, the Kd is the concentration at which binding is half-saturated. By koff is commonly meant the rate constant with which the complex falls apart. Lower therefore signals slow dissociation. In general, kon refers to the rate constant with which the complex forms. Read a low kon as slow association. The stoichiometry N is the number of molecules, sites or subunits per partner or assembly.

B1: VHH_(GSDMD-1) (VHH)
VHH: QVQLVESGGALVQPGGSLRLSCSASGFTFSKYLMSWYRQAPGKERELVATITTAGGNTNYADSVKGRFTISRDNAKNTVYLQMNSLKPEDTAVYYCKASGGTIRTVNETYWGQGTQVTVSS
notes: also called VHH-1; source: E. coli WK6, periplasmic expression (pHEN6), purified (Ni-NTA, SEC S75)
Regarding B1, in assay [1], the affinity, expressed as Kd, was 0.305 nM; the koff is 0.00198 s⁻¹; the on-rate constant (kon) was 6.48e+06 M⁻¹ s⁻¹.

B2: VHH_(GSDMD-1) (VHH)
VHH: B1 VHH
notes: raised by immunization of an alpaca with full-length recombinant human GSDMD; also called VHH_(GSDMD-1)-LPETG-His; source: E. coli WK6, periplasmic expression (pHEN6), purified (Ni-NTA, gel filtration); not shown: LPETG, C-terminal, kept; His tag, C-terminal, kept
Turning to B2, the Kd in assay [2] was found to be 0.31 nM. Also, the “IC50 of calcein release through GSDMD pores in the liposome leakage assay (nanobody 10 nM to 10 µM, 0.5 µM full length GSDMD, caspase-4, 180 min); what is blocked: formation of functional GSDMD pores” value in assay [3] was 220 nM.

B3: VHH_(GSDMD-4) (VHH)
VHH: QVQLVESGGGLVQPGGSLRLSCAASGFTLDRHAIAWFRQAPGLEREGVVCTSSSGAITNTADSVKGRFTISRDDAKNTVYLQMNSLKPEDTAIYYCAVRELWTVQPICEPRPRAYAYWGQGTQVTVSS
notes: source: E. coli WK6, periplasmic expression (pHEN6), purified (Ni-NTA, gel filtration)
In assay [4], B3 registered a koff of 0.00161 s⁻¹ and a kon of 2890 M⁻¹ s⁻¹. Also, in assay [5], the binding result is listed as “binds”. Also, in assay [6], the Kd came out at 559 nM.

B4: VHH_(GSDMD-2) (VHH)
VHH: QVQLVESGGGLVQPGGSLRLSCVDSRSWINVYGANWYRQAPGKERELVAALTSGGTTNYADSVKGRFTISRDNAKNTVYLQMRDLKPEDTAVYYCNLERYTGSSVYPWGQGTQVTVSS
notes: also called VHH-2; source: E. coli WK6, periplasmic expression (pHEN6), purified (Ni-NTA, SEC S75)
In assay [1], B4 came in with a Kd of 0.637 nM, a koff of 0.000951 s⁻¹ and a kon of 1.49e+06 M⁻¹ s⁻¹.

B5: VHH_(GSDMD-2) (VHH)
VHH: B4 VHH
notes: CDR1, -2, -3 of 10, 9 and 12 residues; disulfide C22-C95; also called VHH_(GSDMD-2)-LPETG-His; source: E. coli WK6, periplasmic expression (pHEN6), purified (Ni-NTA, gel filtration); not shown: LPETG, C-terminal, kept; His tag, C-terminal, kept
In turn, B5 yielded a dissociation constant (Kd) in assay [2] of 0.64 nM. The “IC50 of calcein release through GSDMD pores in the liposome leakage assay (nanobody 10 nM to 10 µM, 0.5 µM full length GSDMD, caspase-4, 180 min); what is blocked: formation of functional GSDMD pores” value in assay [3] was 650 nM. The “stoichiometry N” value in assay [7] is 1.

B6: VHH_(GSDMD-6) (VHH)
VHH: QVQLVETGGGLVQPGGSLRLSCTASGFIFSANQMNWVRQAPGKGLEWLSGISTRGDTTSYADSVKGRFTISRDNAKNTLYLQMNSLQPDDTAVYFCARVCIRGPEPKLRCDDWGQGTQVTVSS
notes: also called VHH-6; source: E. coli WK6, periplasmic expression (pHEN6), purified (Ni-NTA, SEC S75)
In assay [1], B6 had a dissociation constant (Kd) of 143 nM, a koff of 0.0201 s⁻¹ and a kon of 141000 M⁻¹ s⁻¹.

B7: VHH_(GSDMD-6) (VHH)
VHH: B6 VHH
notes: CDR3 of 15 residues with an additional disulfide C100-C110; also called VHH_(GSDMD-6)-HA-His; source: E. coli WK6, periplasmic expression (pHEN6), purified (Ni-NTA, gel filtration); not shown: HA, C-terminal, kept; His tag, C-terminal, kept
Turning to B7, in assay [3], the “IC50 of calcein release through GSDMD pores in the liposome leakage assay (nanobody 10 nM to 10 µM, 0.5 µM full length GSDMD, caspase-4, 180 min); what is blocked: formation of functional GSDMD pores” value was 1300 nM. In assay [7], the “stoichiometry N” value came to 1.

B8: VHH_(GSDMD-5) (VHH)
VHH: QVQLVETGGGLVQPGGSLRLSCAASGFVFSINPMNWYRQAPGKERELVAYISMRGSTTNYADSVKGRFIISRDNAKNTLYLQMNSLKPEDTAVYYCNAPSRSVWGQGTQVTVSS
notes: also called VHH-5; source: E. coli WK6, periplasmic expression (pHEN6), purified (Ni-NTA, SEC S75)
In assay [1], B8 returned a Kd of 0.494 nM, a koff of 0.00149 s⁻¹ and a kon of 3.02e+06 M⁻¹ s⁻¹.

B9: VHH_(GSDMD-5) (VHH)
VHH: B8 VHH
notes: as for B3
With B9, in assay [2], the Kd is 0.49 nM.

B10: VHH_(GSDMD-3) (VHH)
VHH: QVQLVETGGGLVQPGGSLRLSCAASGFTLDIYNMGWFRQAPGKEREGVSCISSRYGTSTYYADSVKGRFTISRDNAKNTVYLQMNNLKPEDTAVYYCATVSWRFTTNQDVCLTPSVSGYWGQGTQVTVSS
notes: also called VHH-3; source: E. coli WK6, periplasmic expression (pHEN6), purified (Ni-NTA, SEC S75)
Take B10: in assay [1], binding was put at a Kd of 0.551 nM, the koff worked out at 0.00154 s⁻¹ and the kon came to 2.8e+06 M⁻¹ s⁻¹.

B11: VHH_(GSDMD-3) (VHH)
VHH: B10 VHH
notes: as for B3
B11: in assay [2], the affinity, expressed as Kd, was 0.55 nM.
